Measurements reported in article PMC2920065.
One block for each substance: values may come before it.

What was measured:
[1] = target: GST fusion of the wild type DEP domain of RGS7 (R7-DEP) (bovine) (UniProt O46470); test: pull-down
[2] = target: GST-DEP F107A/F110A double mutant (bovine) (UniProt O46470); test: pull-down

percent bound [1]: > 50%
percent bound [2]: 12%
Substance: complex of wild-type Gβ5 with the RGS7^249-469 construct (from UniProt O46470 249-469)

increase of the fraction bound against wild-type Gβ5 [1]: 10%
Substance: Gβ5 D259A mutant in complex with the RGS7^249-469 construct (from UniProt O46470 249-469)

fold reduction of binding against wild-type Gβ5 [1]: 5 fold
Substance: Gβ5 I282A/I283A double mutant in complex with the RGS7^249-469 construct (from UniProt O46470 249-469)

fold reduction of binding against wild-type Gβ5 [1]: 5 fold
Substance: Gβ5 F284A mutant in complex with the RGS7^249-469 construct (from UniProt O46470 249-469)
